Series [1] addresses mouse SR-A6 expressed in L-929 cells (mouse) (UniProt Q60754). The series can be described thus: binding of fluorophore-labelled virions to cells, confocal microscopy; Alexa-Fluor488-labelled HAdV-C5 bound at 4°C to L-929 cells transfected with mouse SR-A6-IRES-Tomato; Tomato-positive against Tomato-negative cells.
Series [2] concerns the molecule itself. Nature of the series: non-reducing SDS-PAGE; purified soluble mSR-A6; monomers and trimers.

The molecule “human adenovirus type C5 (HAdV-C5) virion (complex)” returned a fold, mean cell-associated virus number in Tomato-positive over Tomato-negative cells in series [1] of 7 fold.

B1: soluble mouse SR-A6 (entire extracellular part) (domain or fragment)
chain: QVLNLQEQLQMLEMCCGNGSLAIEDKPFFSLQWAPKTHLVPRAQGLQALQAQLSWVHTSQEQLRQQFNNLTQNPELFQIKGERGSPGPKGAPGAPGIPGLPGPAAEKGEKGAAGRDGTPGVQGPQGPPGSKGEAGLQGLTGAPGKQGATGAPGPRGEKGSKGDIGLTGPKGEHGTKGDKGDLGLPGNKGDMGMKGDTGPMGSPGAQGGKGDAGKPGLPGLAGSPGVKGDQGKPGVQGVPGPQGAPGLSGAKGEPGRTGLPGPAGPPGIAGNPGIAGVKGSKGDTGIQGQKGTKGESGVPGLVGRKGDTGSPGLAGPKGEPGRVGQKGDPGMKGSSGQQGQKGEKGQKGESFQRVRIMGGTNRGRAEVYYNNEWGTICDDDWDNNDATVFCRMLGYSRGRALSSYGGGSGNIWLDNVNCRGTENSLWDCSKNSWGNHNCVHNEDAGVECS
notes: SR-A6 (MARCO), mouse, the entire extracellular part; Largely monomeric with a small amount of trimers (15-20%) in non-reducing SDS-PAGE; also called mSR-A6 soluble; soluble SR-A6
As for B1, the stoichiometry N – broadly, the number of molecules, sites or subunits per partner or assembly – in series [2] was 3.

The values are drawn from publication PMC5862501, “Lung macrophage scavenger receptor SR-A6 (MARCO) is an adenovirus type-specific virus entry receptor” (PLoS Pathogens, 2018).
